Source: patent publication US20240228648A1

Legend:
[1] = target: CD38 on the surface of Daudi cells (human) (UniProt P28907); assay: flow cytometry on Daudi cells, antibody 300 nM
[2] = target: recombinant biotinylated CD38-avi protein (extracellular domain of human CD38) (human) (UniProt P28907); assay: capture ELISA, antibody 12.5 nM, biotinylated CD38-avi 0.5 ug/ml
[3] = target: recombinant biotinylated CD38-avi protein (extracellular domain of human CD38) (human) (UniProt P28907); assay: capture ELISA, antibody 0.012 nM, biotinylated CD38-avi 0.5 ug/ml
[4] = target: recombinant biotinylated CD38-avi protein (extracellular domain of human CD38) (human) (UniProt P28907); assay: capture ELISA, antibody 0.049 nM, biotinylated CD38-avi 0.5 ug/ml
[5] = target: recombinant biotinylated CD38-avi protein (extracellular domain of human CD38) (human) (UniProt P28907); assay: capture ELISA: antibody captured by anti-human Fc, biotinylated CD38-avi 0.5 ug/ml, fit in GraphPad Prism
[6] = target: recombinant biotinylated CD38-avi protein (extracellular domain of human CD38) (human) (UniProt P28907); assay: competitive ELISA: plate coated with Darzalex (2 µg/ml); biotinylated CD38 (0.2 µg/ml) pre-incubated with soluble Darzalex (15 µg/ml), captured CD38 detected with streptavidin-HRP; replicate 1
[7] = target: recombinant biotinylated CD38-avi protein (extracellular domain of human CD38) (human) (UniProt P28907); assay: capture ELISA, antibody 0.195 nM, biotinylated CD38-avi 0.5 ug/ml
[8] = target: CD38 on the surface of Daudi cells (human) (UniProt P28907); assay: flow cytometry on Daudi cells, antibody 0.069 nM
[9] = target: CD38 on the surface of Daudi cells (human) (UniProt P28907); assay: flow cytometry on Daudi cells, antibody 5.56 nM
[10] = target: recombinant biotinylated CD38-avi protein (extracellular domain of human CD38) (human) (UniProt P28907); assay: capture ELISA, antibody 3.125 nM, biotinylated CD38-avi 0.5 ug/ml
[11] = target: CD38 on the surface of Daudi cells (human) (UniProt P28907); assay: flow cytometry on Daudi cells, antibody 1.85 nM
[12] = target: CD38 on the surface of Daudi cells (human) (UniProt P28907); assay: flow cytometry on Daudi cells, antibody 1.617 nM (so in the source)
[13] = target: CD38 on the surface of Daudi cells (human) (UniProt P28907); assay: flow cytometry on Daudi cells, antibody 16.7 nM
[14] = target: recombinant biotinylated CD38-avi protein (extracellular domain of human CD38) (human) (UniProt P28907); assay: competitive ELISA: plate coated with Darzalex (2 µg/ml); biotinylated CD38 (0.2 µg/ml) pre-incubated with soluble Darzalex (15 µg/ml), captured CD38 detected with streptavidin-HRP; replicate 2
[15] = target: recombinant biotinylated CD38-avi protein (extracellular domain of human CD38) (human) (UniProt P28907); assay: capture ELISA, antibody 0 nM (background), biotinylated CD38-avi 0.5 ug/ml
[16] = target: CD38 on the surface of Daudi cells (human) (UniProt P28907); assay: flow cytometry on Daudi cells, antibody 0.206 nM
[17] = target: CD38 on the surface of Daudi cells (human) (UniProt P28907); assay: flow cytometry on Daudi cells, antibody 50 nM
[18] = target: CD38 on the surface of Daudi cells (human) (UniProt P28907); assay: cell-based or functional assay
[19] = target: recombinant biotinylated CD38-avi protein (extracellular domain of human CD38) (human) (UniProt P28907); assay: competitive ELISA, no competitor: plate coated with Darzalex (2 µg/ml); biotinylated CD38 alone, captured CD38 detected with streptavidin-HRP; replicate 1
[20] = target: recombinant biotinylated CD38-avi protein (extracellular domain of human CD38) (human) (UniProt P28907); assay: capture ELISA, antibody 50 nM, biotinylated CD38-avi 0.5 ug/ml
[21] = target: recombinant biotinylated CD38-avi protein (extracellular domain of human CD38) (human) (UniProt P28907); assay: competitive ELISA, no competitor: plate coated with Darzalex (2 µg/ml); biotinylated CD38 alone, captured CD38 detected with streptavidin-HRP; replicate 2
[22] = target: CD38 on the surface of Daudi cells (human) (UniProt P28907); assay: flow cytometry on Daudi cells, anti-human IgG-Alexa647, fit in GraphPad Prism
[23] = target: recombinant biotinylated CD38-avi protein (extracellular domain of human CD38) (human) (UniProt P28907); assay: capture ELISA, antibody 0.781 nM, biotinylated CD38-avi 0.5 ug/ml

## Darzalex (antibody)
[1]
  Mean fluorescence: 1.29e+06
[2]
  OD450: 0.164 OD450
[3]
  OD450: 0.135 OD450
[4]
  OD450: 0.147 OD450
[5]
  Kd: 1.64 nM
[6]
  OD450: 0.168
[7]
  OD450: 0.135 OD450
[8]
  Mean fluorescence: 9320
[9]
  Mean fluorescence: 1.09e+06
[10]
  OD450: 0.172 OD450
[11]
  Mean fluorescence: 574000
[12]
  Mean fluorescence: 158000
[13]
  Mean fluorescence: 1.34e+06
[14]
  OD450: 0.176
[15]
  OD450: 0.143 OD450
[16]
  Mean fluorescence: 46700
[17]
  Mean fluorescence: 1.31e+06
[18]
  ADCC activity (luciferase) on Daudi cells at 0.0015 nM antibody: 0.12
  ADCC activity (luciferase) on Daudi cells at 0.006 nM antibody: 1.32
  ADCC activity (luciferase) on Daudi cells at 0.0244 nM antibody: 3.88
  ADCC activity (luciferase) on Daudi cells at 0.098 nM antibody: 14.7
  ADCC activity (luciferase) on Daudi cells at 0.39 nM antibody: 40.9
  ADCC activity (luciferase) on Daudi cells at 1.56 nM antibody: 57.2
  ADCC activity (luciferase) on Daudi cells at 6.25 nM antibody: 61
  ADCC activity (luciferase) on Daudi cells at 25 nM antibody: 64.1
  ADCC activity (luciferase) on Daudi cells at 100 nM antibody: 66.5
  CDC: % live Daudi cells (P1) at 0.078 nM antibody: 63.9%
  CDC: % live Daudi cells (P1) at 0.156 nM antibody: 75.2%
  CDC: % live Daudi cells (P1) at 0.3125 nM antibody: 70.6%
  CDC: % live Daudi cells (P1) at 0.625 nM antibody: 67.4%
  CDC: % live Daudi cells (P1) at 1.25 nM antibody: 55.6%
  CDC: % live Daudi cells (P1) at 2.5 nM antibody: 47.6%
  CDC: % live Daudi cells (P1) at 5 nM antibody: 40.9%
  CDC: % live Daudi cells (P1) at 10 nM antibody: 32.3%
[19]
  OD450: 0.377
[20]
  OD450: 0.171 OD450
[21]
  OD450: 0.385
[22]
  Kd: 3.26 nM
[23]
  OD450: 0.145 OD450
